Results taken from US20250304677A1 (VIB VZW, published 2025).
One block for each binder: values may come before it.

Key:
[1] = molecular target: T1, mouse folate receptor alpha (mFRα), recombinant protein (mouse, UniProt P35846 25-232); test: BLI tandem binning on mouse FRα; competitor (1st association) 2HFO19
T1 construct: Bought recombinant proteins (e.g. biotinylated, Acro Biosystems FO1-M82E9); also called mFOLR1; Ms FOLR1
Text: VHHs that share high sequence identity in the CDR3 region, a VHH family, are derived from the same B-cell lineage and diverged from each other due to somatic hypermutation or affinity maturation. Typically, VHHs from the same family recognize the same epitope on the target, but may differ in other characteristics ^{∘}De Genst et al 2006 PNAS 103:4586-4591; De Gents et al 2005 J Biol Chem 280:14114-14121). To study whether the VHHs from the different families bound different epitopes, epitope binning was performed using a tandem binding approach in BLI. One VHH from each family was allowed to bind to mouse FRα on the biosensor, followed by binding of the second VHH ^{∘}Table 4).
Competition between VHHs from different complementarity determining region ^{∘}CDR) 3 families was assessed in a tandem binding assay using biolayer interferometry ^{∘}BLI). Streptavidin biosensors were loaded with biotinylated mouse FRα ^{∘}Acro Biosystems, Cat.nr. FO1-M82E9), followed by binding of anti-FRα VHHs ^{∘}VHH in first association). The biosensors were then transferred to a solution containing a second VHH mixed 1:1 with the first VHH ^{∘}VHH in second association). Using the FortéBio Data Analysis Software the absolute additional binding signal for the second association on top of the first association was calculated. The data were normalized per VHH in first association using the following formula: ^{∘}signal-self)/^{∘}maximum-self) with self being the value of the VHH in first association in combination with the same VHH in second association.

[2] = molecular target: T1, mouse folate receptor alpha (mFRα), …; test: ELISA on recombinant mouse FOLR1, cMyc tag detection, normalised binding, non-linear fit
Description: (§1) Data were normalized and technical replicates were plotted as mean±SD. Data were fitted by non-linear regression and the half-maximal effective concentration ^{∘}EC50) was calculated using GraphPad Prism 9 software. ^{∘}FIG. 1C and FIG. 1D) Binding affinity determination of anti-FOLR1 VHHs for native FOLR1. Mouse ^{∘}FIG. 1C) or human FOLR1 FIG. 1D) was overexpressed on HEK293T cells and binding of the anti-FOLR1 VHHs was assessed using flow cytometry. The mean fluorescence intensity ^{∘}MFI) of the phycoerythrin signal was plotted for each VHH concentration. Data were fitted by non-linear regression using GraphPad Prism 9 software. ^{∘}FIG. 1E) Determination of the competition of representative family members with folic acid ^{∘}FA) using ELISA. Mouse FOLR1 was coated on the plate and was pre-incubated with or without 100 μM FA before adding the VHHs. Data were fitted by non-linear regression using GraphPad Prism 9 software.
In a first step, binding affinity and cross-reactivity of the purified VHHs to human and mouse FRα was assessed by ELISA, using detection of the cMyc tag ^{∘}FIG. 1A-B). […] 2HFO19 ^{∘}family 1) was the best binder of all tested VHHs to both mouse and human FRα with an EC₅₀ of 0.1 nM and 0.4 nM respectively ^{∘}FIG. 1A-B).

human FOLR1/2 chimera 4 = molecular target: T2, human FOLR1/2 chimera 4 (human, UniProt P15328 25-234); test: flow cytometry on transiently transfected HEK293T cells, mouse anti-His then anti-mouse-PE (B575-A)
T2 construct: Region of amino acids 140-150 of hFOLR1 replaced by hFOLR2
Description: Chimera 1 SEQ ID No. 67) and 7 ^{∘}Ch7; SEQ ID No. 73) also contain an additional residue change at a separate location. […] HEK293T cells were transfected with hFOLR1, hFOLR2, one of the hFOLR1/2 chimeric constructs ^{∘}FIG. 2B) or single residue mutants ^{∘}FIG. 2C). Binding of VHHs 2HFO19, 2HFO42, 3MFR60, and a mouse anti-FOLR1 monoclonal antibody ^{∘}mAb) was detected using a mouse anti-His tag antibody for the VHHs followed by an anti-mouse-phycoerythrin antibody. All VHHs were tested at a concentration of 200 nM and untransfected cells were used as a negative control. The colors used for the VHHs represent the different CDR3 families; blue: family 1, green: family 3, grey: family 10.
To identify the exact region in which the VHHs bind to FRα, epitope mapping experiments were performed. Since the VHHs are able to bind human FRα, but not FRβ, we generated seven human FOLR1/2 chimeric constructs where regions of human FOLR1 were replaced by the corresponding human FOLR2 ^{∘}FRβ) regions ^{∘}FIG. 2A): chimera 1 SEQ ID No. 67), chimera 2 ^{∘}SEQ ID No. 68), chimera 3 ^{∘}SEQ ID No. 69), chimera 4 ^{∘}SEQ ID No. 70), chimera 5 ^{∘}SEQ ID No. 71), chimera 6 ^{∘}SEQ ID No. 72) and chimera 7 ^{∘}SEQ ID No. 73). Three additional chimera 1 constructs were made: chimera 1a ^{∘}replacing fragment 31-40; SEQ ID No. 74), chimera 1b ^{∘}replacing fragment 41-50; SEQ ID No. 75) and chimera 1c ^{∘}replacing fragment 51-64; SEQ ID NO. 76). The constructs were transiently transfected into HEK293T cells and dose-dependent binding of the VHHs to the wild-types FRα and FRβ ^{∘}WTs) or the chimeric constructs was assessed via flow cytometry via detection of the tag ^{∘}FIG. 2B). […] Different anti-FRα VHHs were able to bind to cell-expressed FRα-FRβ chimeras to a similar level as WT FRα, with the exception of chimera 4 ^{∘}SEQ ID No. 70) where the binding was completely abolished for all VHHs.

[3] = molecular target: T3, human folate receptor alpha expressed on cells (transfected HEK293T, HeLa, MCF7, MDA-MB-231) (human, UniProt P15328 25-234); test: flow cytometry on HEK293T cells overexpressing human FOLR1, His tag detection, PE MFI, non-linear fit
T3 construct: HEK293T transiently transfected with human FOLR1; also called native human FRα; cell-expressed human FOLR1
Description: as §1

[4] = molecular target: T1, mouse folate receptor alpha (mFRα), …; test: ELISA on coated mouse FOLR1, without folic acid
Description: as §1
(§2) As interference with the endogenous transport of folates via FRα could have serious implications on brain homeostasis, competition between representative family members and FA for mouse FRα binding was assessed via ELISA ^{∘}FIG. 1E).

[5] = molecular target: T1, mouse folate receptor alpha (mFRα), …; test: ELISA on coated mouse FOLR1 pre-incubated with 100 µM folic acid
Description: as §1, §2

T2 sequence (P15328 other isoform, or with tags, fused parts or gaps mutant limits assumed): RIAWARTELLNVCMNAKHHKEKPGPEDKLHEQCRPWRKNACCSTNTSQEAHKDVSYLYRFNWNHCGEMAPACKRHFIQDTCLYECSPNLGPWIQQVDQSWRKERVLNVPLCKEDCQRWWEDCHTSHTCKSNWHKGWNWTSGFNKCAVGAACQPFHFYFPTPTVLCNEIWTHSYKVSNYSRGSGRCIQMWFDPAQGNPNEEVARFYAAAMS
T3 sequence (P15328 25-234 limits assumed): as the sequence (P15328 other isoform, or with tags, fused parts or gaps mutant limits assumed) above, with Q116E, R117Q, H123R, H126Y counted along it
T1 sequence (P35846 25-232 limits assumed): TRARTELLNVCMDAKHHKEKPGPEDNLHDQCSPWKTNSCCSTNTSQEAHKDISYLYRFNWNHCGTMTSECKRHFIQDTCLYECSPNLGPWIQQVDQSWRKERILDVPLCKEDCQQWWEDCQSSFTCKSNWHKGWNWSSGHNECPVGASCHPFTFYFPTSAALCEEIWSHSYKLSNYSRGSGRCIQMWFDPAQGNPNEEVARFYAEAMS

normalized additional binding in 2nd association [1]: 6% | EC50 [2]: 0.3 nM | binding result (human FOLR1/2 chimera 4): no binding (tested: 200 nM) | EC50 [3]: 10.1 nM
B1: VHH 3MFR60 (family 10) (VHH)
VHH: QVQLQESGGGLVQAGGSLRVSCAASGIIFSMNGMGWFRQAPGKQRELVASITSGGSTKYADSVKGRFTISRDNAKNTVYLQMNSLKPEDTAVYYCNIQFGSRWSTYWGQGTQVTVSS

EC50 (read off the curve) [4]: ~1 nM | normalized additional binding in 2nd association [1]: 0% | EC50 (read off the curve) [5]: ~1 nM | binding result (human FOLR1/2 chimera 4): no binding (tested: 200 nM) | EC50 [3]: 4.5 nM
B2: VHH 2HFO19 (family 1) (VHH)
VHH: QVQLQESGGGLVQPGGSLRVSCAASGFPFSTVYMSWVRQAPGKGLEWVSGINNDGGVIDYADSVKGRFTISRDNAKNTLYLQLNSLKPEDTALYFCARGRSFVATLSSSLRGQGTQVTVSS
notes: also called Nb19

EC50 (read off the curve) [4]: ~2 nM | normalized additional binding in 2nd association [1]: 1% | EC50 (read off the curve) [5]: 2 to 3 nM | EC50 [2]: 0.2 nM | binding result (human FOLR1/2 chimera 4): no binding (tested: 200 nM) | EC50 [3]: 26.4 nM
B3: VHH 2HFO42 (family 3) (VHH)
VHH: QVQLQESGGGLVQAGGSLRLSCAASGSGFSGMIMGWYRQVPGKQRELVATVTSHGTTNYADSVKGRFTISRDNAKNTVLLQMNSLKPEDTAVYYCNAHFPGIYWGKGTQVTVSS
notes: also called 2HF042; Nb42
